Measurements from the Human Domainome abundance scans (Beltran et al. 2025).
± gives the uncertainty stated by the source.

B1: POU domain, class 2, transcription factor 3, residues 186 to 260; numbered along this chain, Q9UKI9 (parent)
chain: SDLEELEKFAKTFKQRRIKLGFTQGDVGLAMGKLYGNDFSQTTISRFEALNLSFKNMCKLKPLLEKWLNDAESSP

Variants of: B1
Experiment: abundance fitness (aPCA) (normalised: wild type 0, dead -1); higher = more abundant; growth selection in yeast, the domain comes from the species named
Settings: Homo sapiens
In the case of SDLEELEKFAKTFKQRRIKLGFTQGDVGLAMGKLYGNDFSQTTISRFEALNLSFPNMCKLKPLLEKWLNDAESSP [K55P], the abundance fitness is reported as -0.155 ± 0.06. In the case of SDLEELEKFAKTFKQRRIKLGFTQGDVGLAMGKLYGNDFSQTTISRFEALNLSFQNMCKLKPLLEKWLNDAESSP [K55Q], the abundance fitness is reported as 0.046 ± 0.046. SDLEELEKFAKTFKQRRIKLGFTQGDVGLAMGKLYGNDFSQTTISRFEALNLSFSNMCKLKPLLEKWLNDAESSP [K55S] showed an abundance fitness of 0.011 ± 0.036. With SDLEELEKFAKTFKQRRIKLGFTQGDVGLAMGKLYGNDFSQTTISRFEALNLSFVNMCKLKPLLEKWLNDAESSP [K55V] the abundance fitness was -0.006 ± 0.034. Work on SDLEELEKFAKTFKQRRIKLGFTQGDVGLAMGKLYGNDFSQTTISRFEALNLSFHNMCKLKPLLEKWLNDAESSP [K55H] yielded an abundance fitness of -0.132 ± 0.099. Work on SDLEELEKFAKTFKQRRIKLGFTQGDVGLAMGKLYGNDFSQTTISRFEALNLSFTNMCKLKPLLEKWLNDAESSP [K55T] yielded an abundance fitness of -0.003 ± 0.047. Variant SDLEELEKFAKTFKQRRIKLGFTQGDVGLAMGKLYGNDFSQTTISRFEALNLSFNNMCKLKPLLEKWLNDAESSP [K55N] has an abundance fitness of -0.152 ± 0.066. Work on SDLEELEKFAKTFKQRRIKLGFTQGDVGLAMGKLYGNDFSQTTISRFEALNLSFENMCKLKPLLEKWLNDAESSP [K55E] yielded an abundance fitness of 0.016 ± 0.042. Work on SDLEELEKFAKTFKQRRIKLGFTQGDVGLAMGKLYGNDFSQTTISRFEALNLSFRNMCKLKPLLEKWLNDAESSP [K55R] yielded an abundance fitness of -0.015 ± 0.028. Work on SDLEELEKFAKTFKQRRIKLGFTQGDVGLAMGKLYGNDFSQTTISRFEALNLSFGNMCKLKPLLEKWLNDAESSP [K55G] yielded an abundance fitness of 0.009 ± 0.029. For SDLEELEKFAKTFKQRRIKLGFTQGDVGLAMGKLYGNDFSQTTISRFEALNLSFWNMCKLKPLLEKWLNDAESSP [K55W], the abundance fitness was -0.093 ± 0.042. In the case of SDLEELEKFAKTFKQRRIKLGFTQGDVGLAMGKLYGNDFSQTTISRFEALNLSFFNMCKLKPLLEKWLNDAESSP [K55F], the abundance fitness is reported as -0.031 ± 0.068. SDLEELEKFAKTFKQRRIKLGFTQGDVGLAMGKLYGNDFSQTTISRFEALNLSFDNMCKLKPLLEKWLNDAESSP [K55D] gave an abundance fitness of 0.037 ± 0.052. SDLEELEKFAKTFKQRRIKLGFTQGDVGLAMGKLYGNDFSQTTISRFEALNLSFINMCKLKPLLEKWLNDAESSP [K55I] gave an abundance fitness of -0.12 ± 0.13. For SDLEELEKFAKTFKQRRIKLGFTQGDVGLAMGKLYGNDFSQTTISRFEALNLSFLNMCKLKPLLEKWLNDAESSP [K55L], the abundance fitness was 0.001 ± 0.039. Work on SDLEELEKFAKTFKQRRIKLGFTQGDVGLAMGKLYGNDFSQTTISRFEALNLSFYNMCKLKPLLEKWLNDAESSP [K55Y] yielded an abundance fitness of 0.069 ± 0.081. SDLEELEKFAKTFKQRRIKLGFTQGDVGLAMGKLYGNDFSQTTISRFEALNLSFCNMCKLKPLLEKWLNDAESSP [K55C] gave an abundance fitness of -0.033 ± 0.078. For SDLEELEKFAKTFKQRRIKLGFTQGDVGLAMGKLYGNDFSQTTISRFEALNLSFMNMCKLKPLLEKWLNDAESSP [K55M], the abundance fitness was -0.052 ± 0.047. SDLEELEKFAKTFKQRRIKLGFTQGDVGLAMGKLYGNDFSQTTISRFEALNLSKKNMCKLKPLLEKWLNDAESSP [F54K] showed an abundance fitness of 0.014 ± 0.043. In the case of SDLEELEKFAKTFKQRRIKLGFTQGDVGLAMGKLYGNDFSQTTISRFEALNLSEKNMCKLKPLLEKWLNDAESSP [F54E], the abundance fitness is reported as 0.018 ± 0.038. With SDLEELEKFAKTFKQRRIKLGFTQGDVGLAMGKLYGNDFSQTTISRFEALNLSPKNMCKLKPLLEKWLNDAESSP [F54P] the abundance fitness was -0.041 ± 0.042. Variant SDLEELEKFAKTFKQRRIKLGFTQGDVGLAMGKLYGNDFSQTTISRFEALNLSNKNMCKLKPLLEKWLNDAESSP [F54N] has an abundance fitness of -0.037 ± 0.072. SDLEELEKFAKTFKQRRIKLGFTQGDVGLAMGKLYGNDFSQTTISRFEALNLSYKNMCKLKPLLEKWLNDAESSP [F54Y] gave an abundance fitness of 0.115 ± 0.058. SDLEELEKFAKTFKQRRIKLGFTQGDVGLAMGKLYGNDFSQTTISRFEALNLSHKNMCKLKPLLEKWLNDAESSP [F54H] showed an abundance fitness of 0.033 ± 0.082. In the case of SDLEELEKFAKTFKQRRIKLGFTQGDVGLAMGKLYGNDFSQTTISRFEALNLSRKNMCKLKPLLEKWLNDAESSP [F54R], the abundance fitness is reported as 0.024 ± 0.026. SDLEELEKFAKTFKQRRIKLGFTQGDVGLAMGKLYGNDFSQTTISRFEALNLSSKNMCKLKPLLEKWLNDAESSP [F54S] showed an abundance fitness of -0.059 ± 0.034. In the case of SDLEELEKFAKTFKQRRIKLGFTQGDVGLAMGKLYGNDFSQTTISRFEALNLSVKNMCKLKPLLEKWLNDAESSP [F54V], the abundance fitness is reported as -0.012 ± 0.03. Variant SDLEELEKFAKTFKQRRIKLGFTQGDVGLAMGKLYGNDFSQTTISRFEALNLSWKNMCKLKPLLEKWLNDAESSP [F54W] has an abundance fitness of -0.024 ± 0.032. With SDLEELEKFAKTFKQRRIKLGFTQGDVGLAMGKLYGNDFSQTTISRFEALNLSAKNMCKLKPLLEKWLNDAESSP [F54A] the abundance fitness was 0.013 ± 0.032. SDLEELEKFAKTFKQRRIKLGFTQGDVGLAMGKLYGNDFSQTTISRFEALNLSDKNMCKLKPLLEKWLNDAESSP [F54D] showed an abundance fitness of -0.063 ± 0.046. SDLEELEKFAKTFKQRRIKLGFTQGDVGLAMGKLYGNDFSQTTISRFEALNLSGKNMCKLKPLLEKWLNDAESSP [F54G] gave an abundance fitness of -0.05 ± 0.026. With SDLEELEKFAKTFKQRRIKLGFTQGDVGLAMGKLYGNDFSQTTISRFEALNLSMKNMCKLKPLLEKWLNDAESSP [F54M] the abundance fitness was 0.057 ± 0.049. Variant SDLEELEKFAKTFKQRRIKLGFTQGDVGLAMGKLYGNDFSQTTISRFEALNLSLKNMCKLKPLLEKWLNDAESSP [F54L] has an abundance fitness of -0.041 ± 0.033. For SDLEELEKFAKTFKQRRIKLGFTQGDVGLAMGKLYGNDFSQTTISRFEALNLSIKNMCKLKPLLEKWLNDAESSP [F54I], the abundance fitness was -0.006 ± 0.054. SDLEELEKFAKTFKQRRIKLGFTQGDVGLAMGKLYGNDFSQTTISRFEALNLSCKNMCKLKPLLEKWLNDAESSP [F54C] gave an abundance fitness of -0.068 ± 0.046. In the case of SDLEELEKFAKTFKQRRIKLGFTQGDVGLAMGKLYGNDFSQTTISRFEALNLSTKNMCKLKPLLEKWLNDAESSP [F54T], the abundance fitness is reported as 0.013 ± 0.041. Work on SDLEELEKFAKTFKQRRIKLGFTQGDVGLAMGKLYGNDFSQTTISRFEALNLSQKNMCKLKPLLEKWLNDAESSP [F54Q] yielded an abundance fitness of -0.025 ± 0.047.
